# Results as given in US20230032087A1.
# Molecular target: CD19 on KILR Raji cells (UniProt P15391)
# Test: cell-based or functional assay
# Chain of CD19 on KILR Raji cells (P15391 20-556 limits assumed): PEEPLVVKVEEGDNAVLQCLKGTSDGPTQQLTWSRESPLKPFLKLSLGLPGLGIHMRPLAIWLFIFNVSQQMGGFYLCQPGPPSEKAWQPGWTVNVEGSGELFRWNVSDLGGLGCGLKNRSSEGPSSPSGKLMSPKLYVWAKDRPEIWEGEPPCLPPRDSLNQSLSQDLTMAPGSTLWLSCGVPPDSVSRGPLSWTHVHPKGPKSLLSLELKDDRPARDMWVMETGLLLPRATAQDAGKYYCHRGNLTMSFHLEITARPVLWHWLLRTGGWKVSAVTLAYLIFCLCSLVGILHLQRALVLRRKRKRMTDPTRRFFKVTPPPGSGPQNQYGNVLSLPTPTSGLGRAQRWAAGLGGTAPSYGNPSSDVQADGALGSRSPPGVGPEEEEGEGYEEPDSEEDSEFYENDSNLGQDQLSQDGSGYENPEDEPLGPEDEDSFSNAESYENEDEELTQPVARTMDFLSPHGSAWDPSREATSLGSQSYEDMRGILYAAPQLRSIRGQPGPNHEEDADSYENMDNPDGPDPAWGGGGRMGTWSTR
substance,measurement,value
blinatumomab (bispecific antibody),"EC50 of T cell-redirected killing of KILR Raji cells, +HSA (15 mg/mL)",10.8 ng/mL
same,"EC50 of T cell-redirected killing of KILR Raji cells, -HSA",2.85 ng/mL
